To fix the notation:
B1: SecA N609 (SecA 1-609) (domain or fragment)
chain: MLIKLLTKVFGSRNDRTLRRMRKVVNIINAMEPEMEKLSDEELKGKTAEFRARLEKGEVLENLIPEAFAVVREASKRVFGMRHFDVQLLGGMVLNERCIAEMRTGEGKTLTATLPAYLNALTGKGVHVVTVNDYLAQRDAENNRPLFEFLGLTVGINLPGMPAPAKREAYAADITYGTNNEYGFDYLRDNMAFSPEERVQRKLHYALVDEVDSILIDEARTPLIISGPAEDSSEMYKRVNKIIPHLIRQEKEDSETFQGEGHFSVDEKSRQVNLTERGLVLIEELLVKEGIMDEGESLYSPANIMLMHHVTAALRAHALFTRDVDYIVKDGEVIIVDEHTGRTMQGRRWSDGLHQAVEAKEGVQIQNENQTLASITFQNYFRLYEKLAGMTGTADTEAFEFSSIYKLDTVVVPTNRPMIRKDLPDLVYMTEAEKIQAIIEDIKERTAKGQPVLVGTISIEKSELVSNELTKAGIKHNVLNAKFHANEAAIVAQAGYPAAVTIATNMAGRGTDIVLGGSWQAEVAALENPTAEQIEKIKADWQVRHDAVLEAGGLHIIGTERHESRRIDNQLRGRSGRQGDAGSSRFYLSMEDALMRIFASDRVSGMMRK
B2: SecA N619 (SecA 1-619) (domain or fragment)
chain: MLIKLLTKVFGSRNDRTLRRMRKVVNIINAMEPEMEKLSDEELKGKTAEFRARLEKGEVLENLIPEAFAVVREASKRVFGMRHFDVQLLGGMVLNERCIAEMRTGEGKTLTATLPAYLNALTGKGVHVVTVNDYLAQRDAENNRPLFEFLGLTVGINLPGMPAPAKREAYAADITYGTNNEYGFDYLRDNMAFSPEERVQRKLHYALVDEVDSILIDEARTPLIISGPAEDSSEMYKRVNKIIPHLIRQEKEDSETFQGEGHFSVDEKSRQVNLTERGLVLIEELLVKEGIMDEGESLYSPANIMLMHHVTAALRAHALFTRDVDYIVKDGEVIIVDEHTGRTMQGRRWSDGLHQAVEAKEGVQIQNENQTLASITFQNYFRLYEKLAGMTGTADTEAFEFSSIYKLDTVVVPTNRPMIRKDLPDLVYMTEAEKIQAIIEDIKERTAKGQPVLVGTISIEKSELVSNELTKAGIKHNVLNAKFHANEAAIVAQAGYPAAVTIATNMAGRGTDIVLGGSWQAEVAALENPTAEQIEKIKADWQVRHDAVLEAGGLHIIGTERHESRRIDNQLRGRSGRQGDAGSSRFYLSMEDALMRIFASDRVSGMMRKLGMKPGEAIE
B3: SecA N828 (SecA 1-828) (domain or fragment)
chain: MLIKLLTKVFGSRNDRTLRRMRKVVNIINAMEPEMEKLSDEELKGKTAEFRARLEKGEVLENLIPEAFAVVREASKRVFGMRHFDVQLLGGMVLNERCIAEMRTGEGKTLTATLPAYLNALTGKGVHVVTVNDYLAQRDAENNRPLFEFLGLTVGINLPGMPAPAKREAYAADITYGTNNEYGFDYLRDNMAFSPEERVQRKLHYALVDEVDSILIDEARTPLIISGPAEDSSEMYKRVNKIIPHLIRQEKEDSETFQGEGHFSVDEKSRQVNLTERGLVLIEELLVKEGIMDEGESLYSPANIMLMHHVTAALRAHALFTRDVDYIVKDGEVIIVDEHTGRTMQGRRWSDGLHQAVEAKEGVQIQNENQTLASITFQNYFRLYEKLAGMTGTADTEAFEFSSIYKLDTVVVPTNRPMIRKDLPDLVYMTEAEKIQAIIEDIKERTAKGQPVLVGTISIEKSELVSNELTKAGIKHNVLNAKFHANEAAIVAQAGYPAAVTIATNMAGRGTDIVLGGSWQAEVAALENPTAEQIEKIKADWQVRHDAVLEAGGLHIIGTERHESRRIDNQLRGRSGRQGDAGSSRFYLSMEDALMRIFASDRVSGMMRKLGMKPGEAIEHPWVTKAIANAQRKVESRNFDIRKQLLEYDDVANDQRRAIYSQRNELLDVSDVSETINSIREDVFKATIDAYIPPQSLEEMWDIPGLQERLKNDFDLDLPIAEWLDKEPELHEETLRERILAQSIEVYQRKEEVVGAEMMRHFEKGVMLQTLDSLWKEHLAAMDYLRQGIHLRGYAQKDPKQEYKRESFSMFAAMLESLKYEVISTLSK
B4: SecA N831 (SecA 1-831) (domain or fragment)
chain: MLIKLLTKVFGSRNDRTLRRMRKVVNIINAMEPEMEKLSDEELKGKTAEFRARLEKGEVLENLIPEAFAVVREASKRVFGMRHFDVQLLGGMVLNERCIAEMRTGEGKTLTATLPAYLNALTGKGVHVVTVNDYLAQRDAENNRPLFEFLGLTVGINLPGMPAPAKREAYAADITYGTNNEYGFDYLRDNMAFSPEERVQRKLHYALVDEVDSILIDEARTPLIISGPAEDSSEMYKRVNKIIPHLIRQEKEDSETFQGEGHFSVDEKSRQVNLTERGLVLIEELLVKEGIMDEGESLYSPANIMLMHHVTAALRAHALFTRDVDYIVKDGEVIIVDEHTGRTMQGRRWSDGLHQAVEAKEGVQIQNENQTLASITFQNYFRLYEKLAGMTGTADTEAFEFSSIYKLDTVVVPTNRPMIRKDLPDLVYMTEAEKIQAIIEDIKERTAKGQPVLVGTISIEKSELVSNELTKAGIKHNVLNAKFHANEAAIVAQAGYPAAVTIATNMAGRGTDIVLGGSWQAEVAALENPTAEQIEKIKADWQVRHDAVLEAGGLHIIGTERHESRRIDNQLRGRSGRQGDAGSSRFYLSMEDALMRIFASDRVSGMMRKLGMKPGEAIEHPWVTKAIANAQRKVESRNFDIRKQLLEYDDVANDQRRAIYSQRNELLDVSDVSETINSIREDVFKATIDAYIPPQSLEEMWDIPGLQERLKNDFDLDLPIAEWLDKEPELHEETLRERILAQSIEVYQRKEEVVGAEMMRHFEKGVMLQTLDSLWKEHLAAMDYLRQGIHLRGYAQKDPKQEYKRESFSMFAAMLESLKYEVISTLSKVQV
B5: SecA N798* (SecA 1-798, D798R) (domain or fragment)
chain: MLIKLLTKVFGSRNDRTLRRMRKVVNIINAMEPEMEKLSDEELKGKTAEFRARLEKGEVLENLIPEAFAVVREASKRVFGMRHFDVQLLGGMVLNERCIAEMRTGEGKTLTATLPAYLNALTGKGVHVVTVNDYLAQRDAENNRPLFEFLGLTVGINLPGMPAPAKREAYAADITYGTNNEYGFDYLRDNMAFSPEERVQRKLHYALVDEVDSILIDEARTPLIISGPAEDSSEMYKRVNKIIPHLIRQEKEDSETFQGEGHFSVDEKSRQVNLTERGLVLIEELLVKEGIMDEGESLYSPANIMLMHHVTAALRAHALFTRDVDYIVKDGEVIIVDEHTGRTMQGRRWSDGLHQAVEAKEGVQIQNENQTLASITFQNYFRLYEKLAGMTGTADTEAFEFSSIYKLDTVVVPTNRPMIRKDLPDLVYMTEAEKIQAIIEDIKERTAKGQPVLVGTISIEKSELVSNELTKAGIKHNVLNAKFHANEAAIVAQAGYPAAVTIATNMAGRGTDIVLGGSWQAEVAALENPTAEQIEKIKADWQVRHDAVLEAGGLHIIGTERHESRRIDNQLRGRSGRQGDAGSSRFYLSMEDALMRIFASDRVSGMMRKLGMKPGEAIEHPWVTKAIANAQRKVESRNFDIRKQLLEYDDVANDQRRAIYSQRNELLDVSDVSETINSIREDVFKATIDAYIPPQSLEEMWDIPGLQERLKNDFDLDLPIAEWLDKEPELHEETLRERILAQSIEVYQRKEEVVGAEMMRHFEKGVMLQTLDSLWKEHLAAMDYLRQGIHLRGYAQKR
B6: SecA N649 (SecA 1-649) (domain or fragment)
chain: MLIKLLTKVFGSRNDRTLRRMRKVVNIINAMEPEMEKLSDEELKGKTAEFRARLEKGEVLENLIPEAFAVVREASKRVFGMRHFDVQLLGGMVLNERCIAEMRTGEGKTLTATLPAYLNALTGKGVHVVTVNDYLAQRDAENNRPLFEFLGLTVGINLPGMPAPAKREAYAADITYGTNNEYGFDYLRDNMAFSPEERVQRKLHYALVDEVDSILIDEARTPLIISGPAEDSSEMYKRVNKIIPHLIRQEKEDSETFQGEGHFSVDEKSRQVNLTERGLVLIEELLVKEGIMDEGESLYSPANIMLMHHVTAALRAHALFTRDVDYIVKDGEVIIVDEHTGRTMQGRRWSDGLHQAVEAKEGVQIQNENQTLASITFQNYFRLYEKLAGMTGTADTEAFEFSSIYKLDTVVVPTNRPMIRKDLPDLVYMTEAEKIQAIIEDIKERTAKGQPVLVGTISIEKSELVSNELTKAGIKHNVLNAKFHANEAAIVAQAGYPAAVTIATNMAGRGTDIVLGGSWQAEVAALENPTAEQIEKIKADWQVRHDAVLEAGGLHIIGTERHESRRIDNQLRGRSGRQGDAGSSRFYLSMEDALMRIFASDRVSGMMRKLGMKPGEAIEHPWVTKAIANAQRKVESRNFDIRKQLLEYD
B7: SecA N629* (SecA 1-629, N629D) (domain or fragment)
chain: MLIKLLTKVFGSRNDRTLRRMRKVVNIINAMEPEMEKLSDEELKGKTAEFRARLEKGEVLENLIPEAFAVVREASKRVFGMRHFDVQLLGGMVLNERCIAEMRTGEGKTLTATLPAYLNALTGKGVHVVTVNDYLAQRDAENNRPLFEFLGLTVGINLPGMPAPAKREAYAADITYGTNNEYGFDYLRDNMAFSPEERVQRKLHYALVDEVDSILIDEARTPLIISGPAEDSSEMYKRVNKIIPHLIRQEKEDSETFQGEGHFSVDEKSRQVNLTERGLVLIEELLVKEGIMDEGESLYSPANIMLMHHVTAALRAHALFTRDVDYIVKDGEVIIVDEHTGRTMQGRRWSDGLHQAVEAKEGVQIQNENQTLASITFQNYFRLYEKLAGMTGTADTEAFEFSSIYKLDTVVVPTNRPMIRKDLPDLVYMTEAEKIQAIIEDIKERTAKGQPVLVGTISIEKSELVSNELTKAGIKHNVLNAKFHANEAAIVAQAGYPAAVTIATNMAGRGTDIVLGGSWQAEVAALENPTAEQIEKIKADWQVRHDAVLEAGGLHIIGTERHESRRIDNQLRGRSGRQGDAGSSRFYLSMEDALMRIFASDRVSGMMRKLGMKPGEAIEHPWVTKAIAD

For this experiment, the target named is SecYEG-SecDF•YajC (E. coli) (UniProt P0AGA2).
Molecule “SecA N772 (SecA 1-772) (from UniProt P10408 1-772) (domain or fragment)” had a % pOmpA Translocation, +YEG: in vitro translocation of pOmpA into liposomes with SecYEG-SecDF•YajC (% pOmpA Translocation) of 0.

Consider “E. coli SecA (from UniProt P10408 1-901) (natural protein)”, for which the % pOmpA Translocation, +YEG: in vitro translocation of pOmpA into liposomes with SecYEG-SecDF•YajC (% pOmpA Translocation) stood at 97 and the Channel Activity, μA, +YEG: ion current in Xenopus oocytes injected with SecA, liposomes, SecYEG-SecDF•YajC, pOmpA, ATP-Mg stood at 7 μA.

In turn, B1 yielded a % pOmpA Translocation, +YEG: in vitro translocation of pOmpA into liposomes with SecYEG-SecDF•YajC (% pOmpA Translocation) of 0 and a Channel Activity, μA, +YEG: ion current in Xenopus oocytes injected with the fragment, liposomes, SecYEG-SecDF•YajC, pOmpA, ATP-Mg of 0 μA.

In the case of B2, the % pOmpA Translocation, +YEG: in vitro translocation of pOmpA into liposomes with SecYEG-SecDF•YajC (% pOmpA Translocation) worked out at 0 and the Channel Activity, μA, +YEG: ion current in Xenopus oocytes injected with the fragment, liposomes, SecYEG-SecDF•YajC, pOmpA, ATP-Mg came out at 0 μA.

Take B3: the % pOmpA Translocation, +YEG: in vitro translocation of pOmpA into liposomes with SecYEG-SecDF•YajC (% pOmpA Translocation) was 7.6.

For B4, the % pOmpA Translocation, +YEG: in vitro translocation of pOmpA into liposomes with SecYEG-SecDF•YajC (% pOmpA Translocation) was 71.2 and the Channel Activity, μA, +YEG: ion current in Xenopus oocytes injected with the fragment, liposomes, SecYEG-SecDF•YajC, pOmpA, ATP-Mg was found to be 5.8 μA.

For B5, the % pOmpA Translocation, +YEG: in vitro translocation of pOmpA into liposomes with SecYEG-SecDF•YajC (% pOmpA Translocation) was found to be 0.

For the molecule B6, the % pOmpA Translocation, +YEG: in vitro translocation of pOmpA into liposomes with SecYEG-SecDF•YajC (% pOmpA Translocation) worked out at 0 and the Channel Activity, μA, +YEG: ion current in Xenopus oocytes injected with the fragment, liposomes, SecYEG-SecDF•YajC, pOmpA, ATP-Mg is 5.8 μA.

Molecule B7 yielded a Channel Activity, μA, +YEG: ion current in Xenopus oocytes injected with the fragment, liposomes, SecYEG-SecDF•YajC, pOmpA, ATP-Mg of 0.4 μA.

Values taken from publication PMC5456053.
